Laboratory results taken from patent publication US6656716 (SUGEN, dated 2003).

Target: T1, SULU1-coiled-coil2 (GST fusion of human SULU1 amino acids 752-898) (human, UniProt Q5R4F3 752-898 (Pongo abelii entry))
T1 construct: Bait made as a C-terminal fusion to GST, expressed in E. coli and immobilised for T7 phage display selection; also called Construct 1; SULU1 Coiled-coil2 bait; not shown: glutathione S-transferase (GST) of the pGEX-4T vector
T1 sequence: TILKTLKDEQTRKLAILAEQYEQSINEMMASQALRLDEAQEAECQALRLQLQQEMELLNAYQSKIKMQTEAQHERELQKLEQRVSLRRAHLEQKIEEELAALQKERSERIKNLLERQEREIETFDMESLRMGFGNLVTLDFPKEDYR
Test: T7 phage display, H441 cDNA library, immobilised GST-fusion bait
Experimental: Aliquots of refreshed libraries (10^10–10^12 pfu) supplemented with PanMix and a cocktail of […] inhibitors (Sigma P-8465) were incubated for 1–2 hrs at room temperature with the immobilized baits. Unbound phage was extensively washed (at least 4 times) with wash buffer.
Individual plaques were picked into 25 µL of 10 mM EDTA and the phage was disrupted by heating at 70° C. for 10 min. 2 µL of the disrupted phage were added to 50 µL PCR reaction mix. The insert DNA was amplified by 35 rounds of thermal cycling (94° C., 50 sec; 50° C., 1 min; 72° C., 1 min).

B1: GEK2 coiled-coil domain fragment (residues 677-820 of SEQ ID NO:26) displayed on T7 phage (other)
chain: KESMKQKMEEHTQKKQLLDRDFVAKQKEDLELAMKRLTTDNRREICDKERECLMKKQELLRDREAALWEMEEHQLQERHQLVKQQLKDQYFLQRHELLRKHEKEREQMQRYNQRMIEQLKVRQQQEKARLPKIQRSEGKTRMAM
notes: also called GEK2 CC1; GEK2 cc dom; not shown: T7 phage coat protein of the T7Select1-1b vector
B1: binds.
